Substitutions are numbered along the chain they refer to. Numbers in names are those of the source.
B1: FIXa-Y155F/K228N/I251S/R318Y/R338E/R403E/E410N (protein)
chain 1: YNSGKLEEFVQGNLERECMEEKCSFEEAREVFENTERTTEFWKQYVDGDQCESNPCLNGGSCKDDINSYECWCPFGFEGKNCELDVTCNIKNGRCEQFCKNSADNKVVCSCTEGYRLAENQKSCEPAVPFPCGRVSVSQTSKLTR
chain 2: VVGGEDAKPGQFPWQVVLNGKVDAFCGGSIVNEKWIVTAAHCVETGVNITVVAGEHNIEETEHTEQKRNVSRIIPHHNYNAAINKYNHDIALLELDEPLVLNSYVTPICIADKEYTNIFLKFGSGYVSGWGRVFHKGYSALVLQYLRVPLVDRATCLESTKFTIYNNMFCAGFHEGGRDSCQGDSGGPHVTEVEGTSFLTGIISWGEECAMKGKYGIYTKVSEYVNWIKNKTKLT
B2: FIXa-Y155F/K247N/N249S/R318Y/R338E/T343R/E410N (protein)
chain 1: B1 chain 1
chain 2: B1 chain 2 with N48K, K67N, N69S, S71I, T163R, E223R
B3: FIXa-Y155F/K247N/N249S/R318Y/R338E/T343R/R403E (protein)
chain 1: B1 chain 1
chain 2: B1 chain 2 with N48K, K67N, N69S, S71I, T163R, N230E
B4: FIXa-R318Y/R338E/T343R (protein)
chain 1: B1 chain 1
chain 2: B1 chain 2 with N48K, S71I, T163R, E223R, N230E
B5: FIXa variant R338E/R403E/E410N (mature FIX numbering) (protein)
chain 1: B1 chain 1
chain 2: B1 chain 2 with N48K, S71I, Y138R
B6: FIXa-Y155F/K247N/N249S/R338E/T343R/E410N (protein)
chain 1: B1 chain 1
chain 2: B1 chain 2 with N48K, K67N, N69S, S71I, Y138R, T163R, E223R
B7: FIXa-Y155F/N260S/R318Y/R338E/T343R/R403E/E410N (protein)
chain 1: B1 chain 1
chain 2: B1 chain 2 with N48K, S71I, N80S, T163R
B8: FIXa-Y155F/R338E/T343R/R403E/E410S (protein)
chain 1: B1 chain 1
chain 2: B1 chain 2 with N48K, S71I, Y138R, T163R, N230S
B9: FIXa-Y155F/T343R/R403E/E410N (protein)
chain 1: B1 chain 1
chain 2: B1 chain 2 with N48K, S71I, Y138R, E158R, T163R
B10: FIXa-R318Y/R338E/T343R/R403E/E410S (protein)
chain 1: B1 chain 1
chain 2: B1 chain 2 with N48K, S71I, T163R, N230S
B11: FIXa-Y155F/K247N/N249S/R338E/E410N (protein)
chain 1: B1 chain 1
chain 2: B1 chain 2 with N48K, K67N, N69S, S71I, Y138R, E223R
B12: FIXa-Y155F/K247N/N249S/R338E/T343R/R403E (protein)
chain 1: B1 chain 1
chain 2: B1 chain 2 with N48K, K67N, N69S, S71I, Y138R, T163R, N230E
B13: FIXa-K247N/N249S/R318Y/R338E/T343R/E410N (protein)
chain 1: B1 chain 1
chain 2: B1 chain 2 with N48K, K67N, N69S, S71I, T163R, E223R
B14: FIXa-K247N/N249S/R318Y/T343R/E410N (protein)
chain 1: B1 chain 1
chain 2: B1 chain 2 with N48K, K67N, N69S, S71I, E158R, T163R, E223R
B15: FIXa-K247N/N249S/R318Y/T343R/R403E (protein)
chain 1: B1 chain 1
chain 2: B1 chain 2 with N48K, K67N, N69S, S71I, E158R, T163R, N230E
B16: FIXa variant R318Y/R338E/R403E (mature FIX numbering) (protein)
chain 1: B1 chain 1
chain 2: B1 chain 2 with N48K, S71I, N230E
B17: FIXa variant Y155F/R338E/R403E/E410N (mature FIX numbering) (protein)
chain 1: B1 chain 1
chain 2: B1 chain 2 with N48K, S71I, Y138R
B18: FIXa-K247N/N249S/R338E/T343R/R403E/E410N (protein)
chain 1: B1 chain 1
chain 2: B1 chain 2 with N48K, K67N, N69S, S71I, Y138R, T163R
B19: FIXa-K228N/K247N/N249S/R318Y/R338E/T343R/R403E/E410N (protein)
chain 1: B1 chain 1
chain 2: B1 chain 2 with K67N, N69S, S71I, T163R
B20: FIXa-Y155F/K247N/N249S/R318Y/T343R/E410N (protein)
chain 1: B1 chain 1
chain 2: B1 chain 2 with N48K, K67N, N69S, S71I, E158R, T163R, E223R
B21: FIXa-N260S/R318Y/R338E/T343R/R403E/E410N (protein)
chain 1: B1 chain 1
chain 2: B1 chain 2 with N48K, S71I, N80S, T163R
B22: FIXa-Y155F/K247N/N249S/R338E/T343R/R403E/E410N (protein)
chain 1: B1 chain 1
chain 2: B1 chain 2 with N48K, K67N, N69S, S71I, Y138R, T163R
B23: FIXa-K247N/N249S/R318Y/R338E/T343R/R403E (protein)
chain 1: B1 chain 1
chain 2: B1 chain 2 with N48K, K67N, N69S, S71I, T163R, N230E
B24: FIXa-Y155F/K247N/N249S/R318Y/E410N (protein)
chain 1: B1 chain 1
chain 2: B1 chain 2 with N48K, K67N, N69S, S71I, E158R, E223R
B25: FIXa-R338E/T343R/R403E (protein)
chain 1: B1 chain 1
chain 2: B1 chain 2 with N48K, S71I, Y138R, T163R, N230E
B26: FIXa-Y155F/K247N/N249S/R318Y/R403E (protein)
chain 1: B1 chain 1
chain 2: B1 chain 2 with N48K, K67N, N69S, S71I, E158R, N230E
B27: FIXa-Y155F/K247N/N249S/R318Y/T343R (protein)
chain 1: B1 chain 1
chain 2: B1 chain 2 with N48K, K67N, N69S, S71I, E158R, T163R, E223R, N230E
B28: FIXa-Y155F/K247N/N249S/T343R/R403E (protein)
chain 1: B1 chain 1
chain 2: B1 chain 2 with N48K, K67N, N69S, S71I, Y138R, E158R, T163R, N230E
B29: FIXa-K247N/N249S/R318Y/T343R/R403E/E410N (protein)
chain 1: B1 chain 1
chain 2: B1 chain 2 with N48K, K67N, N69S, S71I, E158R, T163R
B30: FIXa-Y155F/R338E/T343R/R403E (protein)
chain 1: B1 chain 1
chain 2: B1 chain 2 with N48K, S71I, Y138R, T163R, N230E
B31: FIXa-Y155F/R318Y/R338E/T343R (protein)
chain 1: B1 chain 1
chain 2: B1 chain 2 with N48K, S71I, T163R, E223R, N230E
B32: FIXa-Y155F/K247N/N249S/R318Y/T343R/R403E/E410N (protein)
chain 1: B1 chain 1
chain 2: B1 chain 2 with N48K, K67N, N69S, S71I, E158R, T163R
B33: FIXa-Y155F/I251S/R338E/T343R/R403E (protein)
chain 1: B1 chain 1
chain 2: B1 chain 2 with N48K, Y138R, T163R, N230E
B34: FIXa-Y155F/K247N/N249S/R318Y/R338E (protein)
chain 1: B1 chain 1
chain 2: B1 chain 2 with N48K, K67N, N69S, S71I, E223R, N230E
B35: FIXa-Y155F/N260S/R338E/T343R/R403E (protein)
chain 1: B1 chain 1
chain 2: B1 chain 2 with N48K, S71I, N80S, Y138R, T163R, N230E
B36: FIXa-Y155F/K247N/N249S/R338E/T343R (protein)
chain 1: B1 chain 1
chain 2: B1 chain 2 with N48K, K67N, N69S, S71I, Y138R, T163R, E223R, N230E
B37: FIXa-K247N/N249S/R338E/T343R/E410N (protein)
chain 1: B1 chain 1
chain 2: B1 chain 2 with N48K, K67N, N69S, S71I, Y138R, T163R, E223R
B38: FIXa-Y155F/K247N/N249S/T343R/R403E/E410N (protein)
chain 1: B1 chain 1
chain 2: B1 chain 2 with N48K, K67N, N69S, S71I, Y138R, E158R, T163R
B39: FIXa-Y155F/K247N/N249S/R318Y/T343R/R403E (protein)
chain 1: B1 chain 1
chain 2: B1 chain 2 with N48K, K67N, N69S, S71I, E158R, T163R, N230E
B40: FIXa-Y155F/K228N/K247N/N249S/R318Y/R338E/T343R/R403E/E410N (protein)
chain 1: B1 chain 1
chain 2: B1 chain 2 with K67N, N69S, S71I, T163R
B41: FIXa-Y155F/K247N/N249S/R338E/R403E (protein)
chain 1: B1 chain 1
chain 2: B1 chain 2 with N48K, K67N, N69S, S71I, Y138R, N230E
B42: FIXa-Y155F/R318Y/T343R/R403E (protein)
chain 1: B1 chain 1
chain 2: B1 chain 2 with N48K, S71I, E158R, T163R, N230E
B43: FIXa variant Y155F/R318Y/R338E/R403E (mature FIX numbering) (protein)
chain 1: B1 chain 1
chain 2: B1 chain 2 with N48K, S71I, N230E
B44: FIXa-K247N/N249S/T343R/R403E/E410N (protein)
chain 1: B1 chain 1
chain 2: B1 chain 2 with N48K, K67N, N69S, S71I, Y138R, E158R, T163R

Each protein was assayed against Factor X (FX), P00742.
Factor X (FX), P00742, sequence (P00742 whole entry, looked up): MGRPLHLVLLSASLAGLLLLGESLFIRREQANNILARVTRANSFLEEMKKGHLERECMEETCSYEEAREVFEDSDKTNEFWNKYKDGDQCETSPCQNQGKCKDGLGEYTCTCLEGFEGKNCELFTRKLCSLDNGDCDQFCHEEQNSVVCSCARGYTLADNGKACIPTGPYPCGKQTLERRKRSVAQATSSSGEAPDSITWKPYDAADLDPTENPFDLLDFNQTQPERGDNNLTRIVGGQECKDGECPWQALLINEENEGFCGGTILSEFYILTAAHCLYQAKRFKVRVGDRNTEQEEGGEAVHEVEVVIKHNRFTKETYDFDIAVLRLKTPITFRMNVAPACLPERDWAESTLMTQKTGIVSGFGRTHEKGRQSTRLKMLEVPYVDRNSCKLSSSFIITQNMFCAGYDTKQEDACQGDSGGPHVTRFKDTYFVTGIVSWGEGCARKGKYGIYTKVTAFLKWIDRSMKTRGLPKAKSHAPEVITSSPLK

In order of falling KM:
1. B1  0.0393 µM
2. B21  0.0321 µM

In order of rising kcat of FX activation by FIXa in the Xase complex (FVIIIa, PC/PS vesicles, Ca2+):
1. B1  5.3 s⁻¹
2. B21  8.9 s⁻¹

In order of rising kcat:
1. B26  1.7 s⁻¹
2. B24  3.4 s⁻¹
3. B15  3.7 s⁻¹
4. B4  4.5 s⁻¹
5. B28  4.7 s⁻¹
6. B6  4.8 s⁻¹
7. B42  5 s⁻¹
8. B30  5.2 s⁻¹
9. B41  5.3 s⁻¹
10. B7  5.8 s⁻¹
11. B33  5.9 s⁻¹
12. B14  6.1 s⁻¹
13. B35  6.4 s⁻¹
14. B9  6.6 s⁻¹
15. B8  6.8 s⁻¹
16. B25  6.9 s⁻¹
17. B11  7.3 s⁻¹
18. B34  7.5 s⁻¹
19. B39  7.5 s⁻¹
20. B10  7.6 s⁻¹
21. B2  7.7 s⁻¹
22. B31  7.9 s⁻¹
23. B37  7.9 s⁻¹
24. B44  8 s⁻¹
25. B20  8.1 s⁻¹
26. B13  8.8 s⁻¹
27. B32  9 s⁻¹
28. B23  9.2 s⁻¹
29. B40  9.4 s⁻¹
30. B29  9.5 s⁻¹
31. B22  9.8 s⁻¹
32. B19  9.9 s⁻¹
33. B27  10.3 s⁻¹
34. B3  10.6 s⁻¹
35. B36  10.6 s⁻¹
36. B18  10.8 s⁻¹
37. B12  14.6 s⁻¹
38. B38  15 s⁻¹

In order of falling kcat/KM:
1. B36  7.3e+08 M⁻¹ s⁻¹
2. B12  5.9e+08 M⁻¹ s⁻¹
3. B2  5e+08 M⁻¹ s⁻¹
4. B11  4.7e+08 M⁻¹ s⁻¹
5. B31  3.6e+08 M⁻¹ s⁻¹
6. B13  3.2e+08 M⁻¹ s⁻¹
7. B20  3.1e+08 M⁻¹ s⁻¹
8. B37  3.1e+08 M⁻¹ s⁻¹
9. B38  2.9e+08 M⁻¹ s⁻¹
10. B14  2e+08 M⁻¹ s⁻¹
11. B6  1.8e+08 M⁻¹ s⁻¹
12. B32  1.6e+08 M⁻¹ s⁻¹
13. B4  1.5e+08 M⁻¹ s⁻¹
14. B9  1.5e+08 M⁻¹ s⁻¹
15. B41  1.4e+08 M⁻¹ s⁻¹
16. B29  1.3e+08 M⁻¹ s⁻¹
17. B39  1.3e+08 M⁻¹ s⁻¹
18. B44  1.3e+08 M⁻¹ s⁻¹
19. B42  7.1e+07 M⁻¹ s⁻¹
20. B15  3.9e+07 M⁻¹ s⁻¹

In order of falling KM of FX activation by FIXa in the Xase complex (FVIIIa, PC/PS vesicles, Ca2+):
1. B43  0.0671 µM
2. B16  0.0597 µM
3. B5  0.0367 µM
4. B17  0.0336 µM

— patent US20210230570
